# B1: GST-CAPPD fusion protein (pGEX-CAPPD, APP695 residues 286-557) (other, human, UniProt P05067-4 286-557, looked up)
# chain: VVRVPTTAASTPDAVDKYLETPGDENEHAHFQKAKERLEAKHRERMSQVMREWEEAERQAKNLPKADKKAVIQHFQEKVESLEQEAANERQQLVETHMARVEAMLNDRRRLALENYITALQAVPPRPRHVFNMLKKYVRAEQKDRQHTLKHFEHVRMVDPKKAAQIRSQVMTHLRVIYERMNQSLSLLYNVPAVAEEIQDEVDELLQKEQNYSDDVLANMISEPRISYGNDALMPSLTETKTTVELLPVNGEFSLDDLQPWHSFGADSVPAN
# notes: range 286-557; Expressed in bacteria and immobilized on glutathione agarose/Sepharose; also called CAPPD-GST fusion protein; central APP domain; not shown: glutathione S-transferase of vector pGEX-KG
# Target: T1, myc-tagged Mindin (pcDNA-His/myc-Mindin) (human, UniProt Q9BUD6 27-331)
# T1 construct: mature; not shown: His/myc tag of vector pcDNA4-His/myc A
# T1 sequence (looked up): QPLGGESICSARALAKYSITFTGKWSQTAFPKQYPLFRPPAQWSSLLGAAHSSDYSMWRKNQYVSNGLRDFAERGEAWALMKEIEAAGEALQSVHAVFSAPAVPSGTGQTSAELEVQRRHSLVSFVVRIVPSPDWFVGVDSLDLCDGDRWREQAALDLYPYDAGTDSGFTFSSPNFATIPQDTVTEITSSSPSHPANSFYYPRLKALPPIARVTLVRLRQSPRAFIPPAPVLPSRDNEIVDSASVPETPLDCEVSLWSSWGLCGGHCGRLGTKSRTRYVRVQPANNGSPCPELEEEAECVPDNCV
# Assay: pulldown of myc-tagged Mindin with immobilized GST-CAPPD
# Experimental: Affinity chromatography on immobilized GST- or Ig-fusion proteins. These studies were performed essentially as described (Ichtchenko et al., 1995, Cell 81:435-443; Hata et al., Nature 366:347-351). Brain membrane extract was precleared by incubation (2 h at 4° C.) with glutathione agarose and incubated overnight at 4° C. with immobilized GST-CAPPD on glutathione agarose beads preequilibrated with buffer B. Beads were washed with buffer B and serially eluted with 2 ml of buffer B containing 0.3 M NaCl, 0.5 M NaCl, 1.0 M NaCl, or 1.0 M NaCl, 10 mM EGTA, and 5 mM EDTA (instead of 2 mM CaCl2). Eluted proteins were analyzed by SDS-PAGE and Coomassie blue staining. Bound proteins were identified by liquid chromatography/mass spectroscopy of tryptic fragments. For pulldown assays, the medium from COS cells transfected with pcDNA4-His/myc-F spondin or pcDNA-His/myc-Mindin (collected 48-72 h post transfection) was adjusted to (final concentrations) 10 mM HEPES-NaOH pH 7.4, 1 mM EGTA, 1% Triton X-100, proteinase inhibitors were added, and the supernatant was precleared with immobilized GST orIg-C. The treated medium was then incubated overnight at 4° C. with GST or GST-CAPPD immobilized on glutathione agarose or with various Ig-APP fusion proteins immobilized on protein-A Sepharose. […]
binder,measurement,value
B1,binding result,no binding

# From patent publication US20040209310A1 (published 2004)
